Measurements: US20250146022A1, “STABILISING THE HUMAN SPINDLE BY KIFC1/HSET” (MAX-PLANCK-GESELLSCHAFT ZUR FOERDERUNG DER WISSENSCHAFTEN …, priority 2021, published 2025)

B1: wild-type HSET: Wild-type HSET re-expressed from microinjected mClover3-HSET mRNA in KIFC1/HSET-depleted aMTOC-free mouse oocytes (protein)
chain: MDPQRSPLLEVKGNIELKRPLIKAPSQLPLSGSRLKRRPDQMEDGLEPEKKRTRGLGATTKITTSHPRVPSLTTVPQTQGQTTAQKVSKKTGPRCSTAIATGLKNQKPVPAVPVQKSGTSGVPPMAGGKKPSKRPAWDLKGQLCDLNAELKRCRERTQTLDQENQQLQDQLRDAQQQVKALGTERTTLEGHLAKVQAQAEQGQQELKNLRACVLELEERLSTQEGLVQELQKKQVELQEERRGLMSQLEEKERRLQTSEAALSSSQAEVASLRQETVAQAALLTEREERLHGLEMERRRLHNQLQELKGNIRVFCRVRPVLPGEPTPPPGLLLFPSGPGGPSDPPTRLSLSRSDERRGTLSGAPAPPTRHDFSFDRVFPPGSGQDEVFEEIAMLVQSALDGYPVCIFAYGQTGSGKTFTMEGGPGGDPQLEGLIPRALRHLFSVAQELSGQGWTYSFVASYVEIYNETVRDLLATGTRKGQGGECEIRRAGPGSEELTVTNARYVPVSCEKEVDALLHLARQNRAVARTAQNERSSRSHSVFQLQISGEHSSRGLQCGAPLSLVDLAGSERLDPGLALGPGERERLRETQAINSSLSTLGLVIMALSNKESHVPYRNSKLTYLLQNSLGGSAKMLMFVNISPLEENVSESLNSLRFASKVNQCVIGTAQANRK
modifications: left off: large carriers
notes: Wild-type HSET re-expressed from microinjected mClover3-HSET mRNA in KIFC1/HSET-depleted aMTOC-free mouse oocytes

What was measured:
[1] = system: mouse oocytes; test: AURA inhibition in mouse oocytes, NUMA enrichment at spindle poles; assay type: cell-based; settings: constitutive treatment, 500 nM; data not shown
Text: aMTOCs enrich several regulatory kinases at the spindle poles in mouse oocytes (26). The inventors considered that AURA, which is an essential kinase for aMTOC functions (43, 44) and can phosphorylate NUMA (45), negatively regulates NUMA enrichment at microtubule minus-ends in mouse oocytes. […] To confirm that NUMA enrichment is regulated by AURA-dependent phosphorylation, the inventors depleted endogenous NUMA by follicle RNAi (39) and re-expressed NUMA with mutations at the AURA phosphorylation site S1969. […] Together, the inventors infer that AURA phosphorylation negatively regulates NUMA enrichment at microtubule minus-ends in mouse oocytes. All drugs were prepared in DMSO (Sigma-Aldrich) as 1000× stocks. […] Specific parameters used were: 0.1 (for microtubule packing index) or 1.0 (for SD of fluorescence intensity within spindle isosurface) μm for smoothing size, no background subtraction, 500-750 and 1000-1750 μm^3 for minimum and maximum expected total volume of surface object, respectively. SD of fluorescence intensity, volume and volume of the object-oriented minimum bounding box for the spindle isosurface were exported into Excel. Microtubule packing index was calculated by dividing the volume of spindle isosurface by the volume of the object-oriented minimum bounding box. […] Mean fluorescence intensity and volume of isosurfaces were exported into Excel. […]

[2] = system: KIFC1/HSET-depleted aMTOC-free mouse oocytes; test: Rescue of spindle polarity in KIFC1/HSET-depleted aMTOC-free mouse oocytes (human oocyte mimics); assay type: cell-based
Text: This domain, together with the conserved, microtubule-binding motor domain, allows KIFC1/HSET to organize microtubules via crosslinking and/or sliding (86). To investigate the requirement of different domains in KIFC1/HSET, the inventors expressed a series of truncation mutants in aMTOC-free mouse oocytes (FIG. 7K). […] To examine whether the motor activity is dispensable for the function of KIFC1/HSET in aMTOC-free mouse oocytes, the inventors depleted endogenous KIFC1/HSET by follicle RNAi and restored expression with wild-type HSET or with HSET(N593K), which crosslinks microtubules but cannot slide (87). […] Together, the inventors infer that the appropriate level of KIFC1/HSET's crosslinking and sliding activities are required for proper bipolar spindle assembly in the absence of aMTOCs.
Mouse follicles were microinjected with 3.5 pl of siRNAs at a needle concentration of 2 μM as previously described (11). For rescue experiments, in vitro grown oocytes were microinjected with 3.5 pl of mRNAs. mClover3-HSET mRNA was microinjected at a needle concentration of 275 ng/μl, mClover3-HSET(N593K) mRNA at 275 ng/μl, mClover3-NUMA(S1955D) mRNA at 400 ng/μl, mClover3-NUMA(S1955A) mRNA at 400 ng/μl, mClover3-NUMA(SpM-4A) mRNA at 400 ng/μl, mClover3-NUMA(ΔMTBD1) mRNA at 400 ng/μl and mClover3-NUMA(ΔMTBD2) mRNA at 400 ng/μl. Oocytes were allowed to express the mRNAs for 3-4 h before release.
To obtain mouse MI spindles, oocytes were incubated at 37° C. for around 7 h after released into dbcAMP-free medium. To obtain porcine and bovine MI spindles, oocytes were incubated at 39° C./5% CO2 for around 11 and 12 h, respectively, after released into RO-3306-free medium. To obtain human MI spindles, oocytes were incubated at 37° C. for around 14 and 15 h after NEBD. None of the oocytes used for immunofluorescence analyses was subjected to live imaging before fixation.
Time-lapse movies of live mouse, bovine and porcine oocytes, and fixed human and mouse spindles were analyzed in 3D using Imaris (Bitplane). To determine the stages of meiosis and to score for spindle instability, the timing of meiotic progression was quantified relative to the timing of NEBD. NEBD was defined as the time point when the sharp boundary between the nucleus and cytoplasm disappeared in the differential interference contrast image (for mouse oocytes) or when the nucleus started collapsing in the H2B channel (for bovine and porcine oocytes). Spindle poles were defined as regions of MAP4 or MAP4-MTBD or α-tubulin intensity that prominently protruded from the main microtubule mass. In FIG. 1D, oocytes with bipolar spindle, in which ends of all microtubules converged at the poles, were scored as having focused poles. […] For mouse oocytes, unfocused poles were further classified into mildly unfocused poles (with partially separated microtubule ends) and severely unfocused poles (with fully separated microtubule ends). In FIG. 4D, bovine and porcine oocytes, in which the spindle maintained a barrel-shaped bipolar morphology and a detectable spindle axis, were scored as having stable spindle poles. Oocytes, in which the spindle lost their initial bipolarity and underwent dynamic remodeling of the pole(s) were scored as having unstable spindle poles. […] Oocytes, in which the spindle had more than two poles, were scored as having multipolar spindle. In FIG. 1H, mouse oocytes, in which the spindle had two well-defined poles, were scored as having bipolar spindle. Mouse oocytes, in which the spindle had two poorly defined poles, were scored as having apolar/round spindle. Mouse oocytes, in which the spindle had more than two poles, were scored as having multipolar spindle. […] Mouse oocytes, in which the spindle lost its barrel shape but contains several weakly associated microtubule bundles, were scored as having disorganized spindle.

| Molecule | NUMA enrichment at the spindle poles [1] | HSET to α-tubulin intensity ratio, more HSET loaded onto spindles with poorly focused poles ([2]; bipolar MI spindles rescued with wild-type HSET, FIG. 3I) [fold] | spindle polarity (manual scoring) ([2]; endogenous KIFC1/HSET depleted by follicle RNAi, expression restored from mRNA, MI oocytes, FIGS. 3, G and H) | oocytes with a bipolar spindle but poorly focused poles that lacked NUMA ([2]; oocytes rescued with wild-type HSET, FIG. 3G) |
| --- | --- | --- | --- | --- |
| COc1cc(Nc2ncc3c(n2)-c2ccc(Cl)cc2C(c2c(F)cccc2OC)=NC3)ccc1C(=O)O [MLN8237] | increased NUMA enrichment at the spindle poles |  |  |  |
| B1 |  | ~2 | assembled a bipolar spindle | around 25% |
